From paper PMC4585211

Assays:
[1] = target: LHCGR-Q303P/E305P (double proline mutant of the human lutropin/choriogonadotropin receptor), GFP fusion (human) (UniProt P22888)
[2] = target: LHCGR-delExon10 (human lutropin/choriogonadotropin receptor lacking the exon10-encoded segment), GFP fusion (human) (UniProt P22888)

EC50 of cAMP accumulation (radioimmunoassay) in transiently transfected HEK 293 cells, stimulation with hCG for 1 h at 37°C; significantly right-shifted against wild type (0.15 IU/ml) [1] [IU/ml]	EC50 of cAMP accumulation (radioimmunoassay) in transiently transfected HEK 293 cells, stimulation with hCG for 1 h at 37°C; wild-type-like (wild type 0.15 IU/ml) [2] [IU/ml]	EC50 of cAMP accumulation (radioimmunoassay) in transiently transfected HEK 293 cells, stimulation with hLH for 1 h at 37°C; not significantly different from wild type (0.13 IU/ml) [1] [IU/ml]	EC50 of cAMP accumulation (radioimmunoassay) in transiently transfected HEK 293 cells, stimulation with hLH for 1 h at 37°C; significantly right-shifted against wild type (0.13 IU/ml) [2] [IU/ml]	Substance
0.85	0.18	–	–	human choriogonadotropin (hCG) (from UniProt P01215 25-116; P0DN86 21-165) (ligand)
–	–	0.24	0.51	human lutropin (hLH) (from UniProt P01215 25-116; P01229 21-141) (ligand)
